Source: patent US20260265360A1, “USE OF ANTI-FAM19A5 ANTAGONISTS FOR TREATING HEARING DISORDERS” (NEURACLE SCIENCE CO., LTD., priority 2023, published 2026)

Columns and labels:
[1] = tested on: inner hair cells of mouse cochlear explants; assay: Promotion of synaptogenesis (CtBP2 puncta); assay type: cell-based; conditions: antibody 1 μM
Experimental: (§1) Cochlear explant were cultured in medium consisting of plating media, which consist of Neurobasal media (Invitrogen), 1% N2 supplement, and 10 μg/mL Ampicillin with culture media with additional 1% FBS.
(§2) Postnatal day 4-5 (P4-5) C57BL/6 mice were sacrificed for inner ear dissection. Mouse head was bisected, and brain tissue was removed. Cochlea was carefully separated the from the extraneous bones in ice-cold HBSS (5 mM HEPES/1.3 mM CaCl2), 0.9 mM MgCl2, pH 7.4) or External solution (1.2 mM CaCl2), 1 mM MgCl2, 5 mM HEPES in HBSS). Then the stria vascularis and spiral bone plate was removed, and cochlea was cut into two to three sections. […]
(§3) Mouse cochlear explant cultures were treated with FAM19A5, FAM19A5 combined with a FAM19A5 antagonist (e.g., described herein, e.g., 1-30 antibody), or a FAM19A5 antagonist (e.g., described herein, e.g., 1-30 antibody) alone at 1 DIV to determine the level of synaptogenesis at 2 DIV by immunostaining CtBP2, a ribbon synapse marker. To quantify the number of CtBP2 puncta of individual inner hair cells, z-stack confocal images were exported in “multi-page” and the number of CtBP2 puncta from each individual inner hair cells were measured using ROI manger and multi-point tool from Fiji (Image J). Number of CtBP2 puncta from five individual inner hair cells were counted per image and 3 z-stack images were measured from each treatment group. […]

[2] = tested on: C57BL/6 mice; assay: Effect of anti-FAM19A5 antibody administration itself on hearing ability (ABR threshold); assay type: in vivo, mouse; conditions: 30 mg/kg i.v. once weekly; 2 weeks post antibody administration; no noise exposure
Experimental: FIGS. 5A, 5B, and 5C show the effect of FAM19A5 antagonist administration on hearing ability in mice. The effect on hearing was assessed by measuring auditory brainstem response (ABR) generated after FAM19A5 antagonist administration. FIG. 5A provides a schematic of the experimental design. As shown, anti-FAM19A5 antibody (1-30) or control human IgG antibody was administered to the mice intravenously once a week (30 mg/kg per dose). ABR (i.e., hearing test) was measured prior to the initial administration of the antibodies and then at day 1, week 2, and 8 week post antibody administration. FIG. 5B provides comparison of ABR threshold in the mice prior to the initial administration of the anti-FAM19A5 antibody (box) or the control IgG antibody (circle). […] In both FIGS. 5B and 5C, the ABR threshold was measured at a frequency ranging from 0 to 64 kHz.
To assess whether the administration of a FAM19A5 antagonist itself has any effect on hearing, C57BL/6 mice (8 weeks old) were intravenously administered with either an anti-FAM19A5 antibody (1-30 antibody) or a control human IgG antibody. […] To assess hearing, auditory brainstem response (ABR) threshold was measured prior to the initial antibody administration and then at day 1, 2 weeks, and 8 weeks post antibody administration.

[3] = tested on: inner hair cells of mouse cochlear explant; assay: Reversal of FAM19A5-induced inhibition of synaptogenesis (CtBP2 puncta); assay type: cell-based; conditions: 1 μM FAM19A5 protein plus anti-FAM19A5 antibody, treated 1 DIV, stained 2 DIV
Experimental: as §1, §2, §3

B1: 1-30: anti-FAM19A5 antibody, de-immunized variant of 3-2; VH SEQ ID NO: 235, VL SEQ ID NO: 240 (antibody, V domains shown)
VH: AVTLDESGGGLQTPGGALRLSCKASGFDFESFNMFWVRQAPGKGLEYVSQISSSEEDENYAPAVKGRATISRDNGQSTLYLQMNSLRAEDTGTYYCAKSSYDCPYGHCSSGVDSAGEIDAWGHGTEVIVSS
VL: ALTQPSSVSANPGETVKITCSGGGSEEEQYYYGWYQQKPGSAPVTLIYQDEERPSDIPSRFSGSTSGSTATLTITGVQAGDEADYYCGSWDSEDEDHFGAGTTLTVL
modifications: Low-PI VH, 1-30 VH, 1-17 VH, 1-32 VH, 4-11 VH, 6-10 VH; 1-30 VL
number of CtBP2 puncta within the inner hair cells vs control human IgG [1]: significant increase | ABR threshold values vs control IgG antibody [2]: remained comparable | number of CtBP2 puncta in inner hair cells [3]: increased (as compared to the FAM19A5 protein alone group) and comparable to that of the control group
